Data on 3 molecules can be found in article doi:10.1101/2024.10.04.616749, “Structural basis for a nucleoporin exportin complex between RanBP2, SUMO1-RanGAP1, the E2 Ubc9, Crm1 and the Ran GTPase” (bioRxiv, 2024).

Common to all, as to settings: both partners purified
In experiment [1] the target is T1, Crm1 (full-length human) (human, UniProt O14980 1-1071).
T1 construct: Crm1 (exportin-1), human, full length; also called exportin Crm1; source: E. coli BL21(DE3) SoluBL21 with Codon Plus (RIL) plasmid, purified (Ni-NTA, Ulp1 cleavage, SEC, MonoQ); not shown: His6-Smt3, N-terminal, cleaved
T1 sequence (O14980 whole entry): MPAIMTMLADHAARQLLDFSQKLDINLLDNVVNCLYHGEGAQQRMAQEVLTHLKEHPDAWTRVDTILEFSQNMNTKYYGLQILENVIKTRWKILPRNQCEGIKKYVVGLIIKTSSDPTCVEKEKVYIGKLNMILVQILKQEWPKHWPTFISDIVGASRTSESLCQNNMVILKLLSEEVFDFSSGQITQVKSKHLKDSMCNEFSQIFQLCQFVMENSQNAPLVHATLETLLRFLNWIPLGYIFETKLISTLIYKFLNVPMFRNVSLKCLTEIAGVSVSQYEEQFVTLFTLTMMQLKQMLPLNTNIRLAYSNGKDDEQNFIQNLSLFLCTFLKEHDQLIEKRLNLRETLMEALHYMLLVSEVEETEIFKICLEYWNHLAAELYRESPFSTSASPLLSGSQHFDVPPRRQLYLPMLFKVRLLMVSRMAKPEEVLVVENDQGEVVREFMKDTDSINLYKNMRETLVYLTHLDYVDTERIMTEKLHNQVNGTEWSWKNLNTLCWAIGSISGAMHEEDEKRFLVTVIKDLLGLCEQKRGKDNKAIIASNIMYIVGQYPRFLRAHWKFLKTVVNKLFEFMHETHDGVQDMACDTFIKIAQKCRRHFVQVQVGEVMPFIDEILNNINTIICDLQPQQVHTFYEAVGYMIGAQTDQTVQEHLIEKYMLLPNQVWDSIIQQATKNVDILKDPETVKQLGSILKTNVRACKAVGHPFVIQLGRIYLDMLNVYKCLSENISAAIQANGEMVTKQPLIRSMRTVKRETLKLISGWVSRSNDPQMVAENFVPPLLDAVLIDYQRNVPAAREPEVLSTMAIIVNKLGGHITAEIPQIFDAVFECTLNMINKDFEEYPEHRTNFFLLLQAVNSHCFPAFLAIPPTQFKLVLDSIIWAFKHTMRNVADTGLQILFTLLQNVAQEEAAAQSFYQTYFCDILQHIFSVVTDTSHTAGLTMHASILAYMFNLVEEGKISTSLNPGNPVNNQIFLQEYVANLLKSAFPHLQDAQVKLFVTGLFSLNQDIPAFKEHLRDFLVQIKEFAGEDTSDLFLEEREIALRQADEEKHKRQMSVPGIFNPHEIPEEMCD
Put plainly: SEC; analytical size exclusion chromatography of complexes I, II and III assembled from a RanBP2 variant, SUMO1-RanGAP1, Ubc9, Crm1 and Ran^Q69L(GTP); fractions on SDS-PAGE. A general note: Size exclusion chromatography separates by hydrodynamic size, large species first.

The target in the next experiment is Ran^Q69L(GTP) (human, UniProt P62826 1-216, Q69L). Described as above.
For experiment [2], the target named is T1, Crm1 (full-length human). Put plainly: cryo-EM structure; purified RanBP2^RBD4/SUMO1^Q94P-RanGAP1/Ubc9 incubated with excess Crm1 and Ran^Q69L(GTP), gel filtration in 20 mM HEPES pH 7.4, 110 mM potassium acetate, 2 mM magnesium acetate, 1 mM TCEP; lightly crosslinked with 250 uM BS3 for 30 min; 0.1% CHAPSO.

B1: RanBP2^2300–3060 (RanBP2^RBD3–4) (domain or fragment, human, UniProt P49792 2300-3060, looked up)
chain: TQEEERDGQYFEPVVPLPDLVEVSSGEENEQVVFSHRAKLYRYDKDVGQWKERGIGDIKILQNYDNKQVRIVMRRDQVLKLCANHRITPDMTLQNMKGTERVWLWTACDFADGERKVEHLAVRFKLQDVADSFKKIFDEAKTAQEKDSLITPHVSRSSTPRESPCGKIAVAVLEETTRERTDVIQGDDVADATSEVEVSSTSETTPKAVVSPPKFVFGSESVKSIFSSEKSKPFAFGNSSATGSLFGFSFNAPLKSNNSETSSVAQSGSESKVEPKKCELSKNSDIEQSSDSKVKNLFASFPTEESSINYTFKTPEKAKEKKKPEDSPSDDDVLIVYELTPTAEQKALATKLKLPPTFFCYKNRPDYVSEEEEDDEDFETAVKKLNGKLYLDGSEKCRPLEENTADNEKECIIVWEKKPTVEEKAKADTLKLPPTFFCGVCSDTDEDNGNGEDFQSELQKVQEAQKSQTEEITSTTDSVYTGGTEVMVPSFCKSEEPDSITKSISSPSVSSETMDKPVDLSTRKEIDTDSTSQGESKIVSFGFGSSTGLSFADLASSNSGDFAFGSKDKNFQWANTGAAVFGTQSVGTQSAGKVGEDEDGSDEEVVHNEDIHFEPIVSLPEVEVKSGEEDEEILFKERAKLYRWDRDVSQWKERGVGDIKILWHTMKNYYRILMRRDQVFKVCANHVITKTMELKPLNVSNNALVWTASDYADGEAKVEQLAVRFKTKEVADCFKKTFEECQQNLMKLQKGHVSLAAELSK
notes: RanBP2 (Nup358), human, residues 2300-3060: RBD3, FG1, IR1-M-IR2, FG2 and RBD4; pET28b with a thrombin-cleavable His6 tag; no cleavage is described for the protein of the analytical gel filtration runs (it was cleaved for the SUMO conjugation assays); source: E. coli BL21(DE3) Codon Plus (RIL), purified (Ni-NTA, SEC)
On to B1, for which the binding result with Crm1 (full-length human) [1] and in the experiment with Ran^Q69L(GTP) was “binds” each time.

B2: RanBP2^2446–3060 (RanBP2^RBD4) (domain or fragment, human, UniProt P49792 2446-3060, looked up)
chain: DSLITPHVSRSSTPRESPCGKIAVAVLEETTRERTDVIQGDDVADATSEVEVSSTSETTPKAVVSPPKFVFGSESVKSIFSSEKSKPFAFGNSSATGSLFGFSFNAPLKSNNSETSSVAQSGSESKVEPKKCELSKNSDIEQSSDSKVKNLFASFPTEESSINYTFKTPEKAKEKKKPEDSPSDDDVLIVYELTPTAEQKALATKLKLPPTFFCYKNRPDYVSEEEEDDEDFETAVKKLNGKLYLDGSEKCRPLEENTADNEKECIIVWEKKPTVEEKAKADTLKLPPTFFCGVCSDTDEDNGNGEDFQSELQKVQEAQKSQTEEITSTTDSVYTGGTEVMVPSFCKSEEPDSITKSISSPSVSSETMDKPVDLSTRKEIDTDSTSQGESKIVSFGFGSSTGLSFADLASSNSGDFAFGSKDKNFQWANTGAAVFGTQSVGTQSAGKVGEDEDGSDEEVVHNEDIHFEPIVSLPEVEVKSGEEDEEILFKERAKLYRWDRDVSQWKERGVGDIKILWHTMKNYYRILMRRDQVFKVCANHVITKTMELKPLNVSNNALVWTASDYADGEAKVEQLAVRFKTKEVADCFKKTFEECQQNLMKLQKGHVSLAAELSK
notes: RanBP2 (Nup358), human, residues 2446-3060: FG1, IR1-M-IR2, FG2 and RBD4; pET28b with a thrombin-cleavable His6 tag; no cleavage is described for the protein used in cryo-EM reconstitutions and analytical gel filtration; also called RanBP2 FG1-IR1-M-IR2-FG2-RBD4 fragment; hRanBP2^RBD4; source: E. coli BL21(DE3) Codon Plus (RIL), purified (Ni-NTA, SEC)
On to B2, for which the binding result with Ran^Q69L(GTP) and in the experiment with Crm1 (full-length human) [2] was “binds” each time.

B3: RanBP2^2300–2910 (RanBP2^RBD3) (domain or fragment, human, UniProt P49792 2300-2910, looked up)
chain: TQEEERDGQYFEPVVPLPDLVEVSSGEENEQVVFSHRAKLYRYDKDVGQWKERGIGDIKILQNYDNKQVRIVMRRDQVLKLCANHRITPDMTLQNMKGTERVWLWTACDFADGERKVEHLAVRFKLQDVADSFKKIFDEAKTAQEKDSLITPHVSRSSTPRESPCGKIAVAVLEETTRERTDVIQGDDVADATSEVEVSSTSETTPKAVVSPPKFVFGSESVKSIFSSEKSKPFAFGNSSATGSLFGFSFNAPLKSNNSETSSVAQSGSESKVEPKKCELSKNSDIEQSSDSKVKNLFASFPTEESSINYTFKTPEKAKEKKKPEDSPSDDDVLIVYELTPTAEQKALATKLKLPPTFFCYKNRPDYVSEEEEDDEDFETAVKKLNGKLYLDGSEKCRPLEENTADNEKECIIVWEKKPTVEEKAKADTLKLPPTFFCGVCSDTDEDNGNGEDFQSELQKVQEAQKSQTEEITSTTDSVYTGGTEVMVPSFCKSEEPDSITKSISSPSVSSETMDKPVDLSTRKEIDTDSTSQGESKIVSFGFGSSTGLSFADLASSNSGDFAFGSKDKNFQWANTGAAVFGTQSVGTQSAGKVGEDEDGSDEEVVHNEDI
notes: RanBP2 (Nup358), human, residues 2300-2910: contains only RBD3 of the two RBDs; pET28b with a thrombin-cleavable His6 tag; no cleavage is described for the analytical gel filtration runs; source: E. coli BL21(DE3) Codon Plus (RIL), purified (Ni-NTA, SEC)
In the case of B3, the binding result with Crm1 (full-length human) [1] and with Ran^Q69L(GTP) was “binds” each time.
